What was measured:
human CD123 [1] = target: T1, human CD123 (human, UniProt P26951 19-305, limits assumed); test: off-rate screen of Fab-His on a Biacore CD123 chip (Example 3), relative to 7G3 H1L1 Fab
T1 construct: Construct on the chip is not described; also called CD123 chip
T1 sequence (looked up): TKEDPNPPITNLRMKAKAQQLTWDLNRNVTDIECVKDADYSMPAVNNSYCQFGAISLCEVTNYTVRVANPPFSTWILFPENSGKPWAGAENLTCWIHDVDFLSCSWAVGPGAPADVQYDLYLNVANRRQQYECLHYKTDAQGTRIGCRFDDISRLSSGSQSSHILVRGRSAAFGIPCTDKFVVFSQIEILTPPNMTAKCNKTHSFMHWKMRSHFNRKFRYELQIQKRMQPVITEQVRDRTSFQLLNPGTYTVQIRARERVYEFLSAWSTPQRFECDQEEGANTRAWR

human CD123 [2] = target: T1, human CD123; test: Biacore, Fab-His on CD123 (Example 3; the sheet names no assay)
human CD3 = target: T2, human CD3 (human, UniProt P07766 23-126; P04234 22-105); test: SPR; human CD3-Fc (printed 'CD388-Fc', Sino Biological) covalently bound to the chip; test article passed over at 3.125, 12.5, 50 and 200 nM
T2 construct: The legend says only human CD3
T2 sequence (P07766 23-126, chain 1 of 2): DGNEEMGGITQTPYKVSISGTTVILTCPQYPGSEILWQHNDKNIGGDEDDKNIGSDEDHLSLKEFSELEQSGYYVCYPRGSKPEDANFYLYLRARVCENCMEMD
T2 sequence (P04234 22-105, chain 2 of 2): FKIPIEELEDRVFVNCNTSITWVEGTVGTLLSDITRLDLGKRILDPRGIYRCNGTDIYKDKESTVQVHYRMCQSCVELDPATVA

cyno CD3 = target: T3, cyno CD3 (cynomolgus monkey, UniProt Q95LI5 22-117; Q95LI8 22-105); test: SPR; cynomolgus monkey CD3-Fc (printed 'CD388-Fc', Sino Biological) covalently bound to the chip; test article passed over at 3.125, 12.5, 50 and 200 nM
T3 construct: The legend says only cyno CD3; also called cynomolgus monkey CD3
T3 sequence (Q95LI5 22-117, form in doubt, chain 1 of 2): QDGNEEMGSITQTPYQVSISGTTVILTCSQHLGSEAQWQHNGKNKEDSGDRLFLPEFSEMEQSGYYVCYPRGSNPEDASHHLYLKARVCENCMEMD
T3 sequence (Q95LI8 22-105, form in doubt, chain 2 of 2): as the sequence (P04234 22-105, chain 2 of 2) above, with I5V, N15K, I20V, S32T, D33N, I34N, T64A, S74N, V83L counted along it

B1: 13735 7G3_H1.86_L1_Fab_His (Fab, V domains shown)
VH: QVQLVQSGAEVKKPGASVKVSCKASGYTFTDYYMKWVRQAPGQSLEWMGDIIPSNGATFYNQKFKGKATLTVDRSTSTAYMELSSLRSEDTAVYYCTRSHLLRASWFAYWGQGTLVTVSS
VL: DFVMTQSPDSLAVSLGERATINCKSSQSLLNSGNQKNYLTWYQQKPGQPPKLLIYWASTRESGVPDRFTGSGSGTDFTLTISSLQAEDVAVYYCQNDYSYPYTFGGGTKLEIKR
notes: also called XENP13735; copies: 1 + 1
- Fold improvement in off-rate vs. H1L1 (human CD123 [1]): 4.61 fold

B2: 13740 7G3_H1.91_L1_Fab_His (Fab, V domains shown)
VH: QVQLVQSGAEVKKPGASVKVSCKASGYTFTDYYMKWVRQAPGQSLEWMGDIIPSNGATFYNQKFQGRVTMTVDRSTSTAYMHLSSLRSEDTAVYYCTRSHLLRASWFAYWGQGTLVTVSS
VL: DFVMTQSPDSLAVSLGERATINCKSSQSLLNSGNQKNYLTWYQQKPGQPPKLLIYWASTRESGVPDRFTGSGSGTDFTLTISSLQAEDVAVYYCQNDYSYPYTFGGGTKLEIKR
notes: also called XENP13740; copies: 1 + 1
- Fold improvement in off-rate vs. H1L1 (human CD123 [1]): 1.04 fold

B3: 13855 7G3_H1_L1.57_Fab_His (Fab, V domains shown)
VH: QVQLVQSGAEVKKPGASVKVSCKASGYTFTDYYMKWVRQAPGQSLEWMGDIIPSNGATFYNQKFQGRVTMTVDRSTSTAYMELSSLRSEDTAVYYCTRSHLLRASWFAYWGQGTLVTVSS
VL: DFVMTQSPDSLAVSLGERATINCKSSQSLLNTGNQKNYLTWYQQKPGQPPKLLIYWASTRESGVPDRFTGSGSGTDFTLTISSLQAEDVAVYYCQNDYSYPYTFGGGTKLEIKR
notes: also called XENP13855
- Fold improvement in off-rate vs. H1L1 (human CD123 [1]): 0.84 fold

B4: 13963 7G3_H1.109_L1_Fab_His (Fab, V domains shown)
VH: QVQLQQSGAEVKKPGASVKVSCKASGYTFTDYYMKWVKQSHGKSLEWMGDIIPSNGATFYNQKFKGKATLTVDRSTSTAYMELSSLRSEDTAVYYCARSHLLRASWFAYWGQGTLVTVSS
VL: DFVMTQSPDSLAVSLGERATINCKSSQSLLNSGNQKNYLTWYQQKPGQPPKLLIYWASTRESGVPDRFTGSGSGTDFTLTISSLQAEDVAVYYCQNDYSYPYTFGGGTKLEIKR
notes: also called XENP13963
- Ka (human CD123 [2]): 1.35e+10 M⁻¹
- Kd (human CD123 [2]): 0.0742 nM
- koff (human CD123 [2]): 5.53e-05 s⁻¹
- kon (human CD123 [2]): 745000 M⁻¹ s⁻¹

B5: 13965 7G3_H1.107_L1.57_Fab_His (Fab, V domains shown)
VH: QVQLQQSGAEVKKPGASVKVSCKASGYTFTDYYMKWVRQAPGQSLEWMGDIIPSNGATFYNQKFKGKATLTVDRSTSTAYMELSSLRSEDTAVYYCARSHLLRASWFAYWGQGTLVTVSS
VL: DFVMTQSPDSLAVSLGERATINCKSSQSLLNTGNQKNYLTWYQQKPGQPPKLLIYWASTRESGVPDRFTGSGSGTDFTLTISSLQAEDVAVYYCQNDYSYPYTFGGGTKLEIKR
notes: also called XENP13965
- Ka (human CD123 [2]): 1.6e+10 M⁻¹
- Kd (human CD123 [2]): 0.0624 nM
- koff (human CD123 [2]): 3.82e-05 s⁻¹
- kon (human CD123 [2]): 612000 M⁻¹ s⁻¹

B6: 13737 7G3_H1.88_L1_Fab_His (Fab, V domains shown)
VH: QVQLVQSGAEVKKPGASVKVSCKASGYTFTDYYMKWVRQAHGQSLEWMGDIIPSNGATFYNQKFQGRVTMTVDRSTSTAYMELSSLRSEDTAVYYCTRSHLLRASWFAYWGQGTLVTVSS
VL: DFVMTQSPDSLAVSLGERATINCKSSQSLLNSGNQKNYLTWYQQKPGQPPKLLIYWASTRESGVPDRFTGSGSGTDFTLTISSLQAEDVAVYYCQNDYSYPYTFGGGTKLEIKR
notes: also called XENP13737; copies: 1 + 1
- Fold improvement in off-rate vs. H1L1 (human CD123 [1]): 0.96 fold

B7: 13961 7G3_H1.107_L1_Fab_His (Fab, V domains shown)
VH: QVQLQQSGAEVKKPGASVKVSCKASGYTFTDYYMKWVRQAPGQSLEWMGDIIPSNGATFYNQKFKGKATLTVDRSTSTAYMELSSLRSEDTAVYYCARSHLLRASWFAYWGQGTLVTVSS
VL: DFVMTQSPDSLAVSLGERATINCKSSQSLLNSGNQKNYLTWYQQKPGQPPKLLIYWASTRESGVPDRFTGSGSGTDFTLTISSLQAEDVAVYYCQNDYSYPYTFGGGTKLEIKR
notes: also called XENP13961
- Ka (human CD123 [2]): 6.79e+09 M⁻¹
- Kd (human CD123 [2]): 0.147 nM
- koff (human CD123 [2]): 8.84e-05 s⁻¹
- kon (human CD123 [2]): 600000 M⁻¹ s⁻¹

B8: 13738 7G3_H1.89_L1_Fab_His (Fab, V domains shown)
VH: QVQLVQSGAEVKKPGASVKVSCKASGYTFTDYYMKWVRQAPGQSLEWIGDIIPSNGATFYNQKFQGRVTMTVDRSTSTAYMELSSLRSEDTAVYYCTRSHLLRASWFAYWGQGTLVTVSS
VL: DFVMTQSPDSLAVSLGERATINCKSSQSLLNSGNQKNYLTWYQQKPGQPPKLLIYWASTRESGVPDRFTGSGSGTDFTLTISSLQAEDVAVYYCQNDYSYPYTFGGGTKLEIKR
notes: also called XENP13738; copies: 1 + 1
- Fold improvement in off-rate vs. H1L1 (human CD123 [1]): 1.29 fold

B9: 13741 7G3_H1.92_L1_Fab_His (Fab, V domains shown)
VH: QVQLVQSGAEVKKPGASVKVSCKASGYTFTDYYMKWVRQAPGQSLEWMGDIIPSNGATFYNQKFQGRVTMTVDRSTSTAYMELSSLTSEDTAVYYCTRSHLLRASWFAYWGQGTLVTVSS
VL: DFVMTQSPDSLAVSLGERATINCKSSQSLLNSGNQKNYLTWYQQKPGQPPKLLIYWASTRESGVPDRFTGSGSGTDFTLTISSLQAEDVAVYYCQNDYSYPYTFGGGTKLEIKR
notes: also called XENP13741; copies: 1 + 1
- Fold improvement in off-rate vs. H1L1 (human CD123 [1]): 1.89 fold

B10: 13743 7G3_H1.94_L1_Fab_His (Fab, V domains shown)
VH: QVQLVQSGAEVKKPGASVKVSCKASGYTFTDYYMKWVKQSHGKSLEWMGDIIPSNGATFYNQKFQGRVTMTVDRSTSTAYMELSSLRSEDTAVYYCTRSHLLRASWFAYWGQGTLVTVSS
VL: DFVMTQSPDSLAVSLGERATINCKSSQSLLNSGNQKNYLTWYQQKPGQPPKLLIYWASTRESGVPDRFTGSGSGTDFTLTISSLQAEDVAVYYCQNDYSYPYTFGGGTKLEIKR
notes: also called XENP13743; copies: 1 + 1
- Fold improvement in off-rate vs. H1L1 (human CD123 [1]): 0.65 fold

B11: XENP13677 (bispecific antibody)
HC 1 (Fab-Fc): QVQLVQSGAEVKKPGASVKVSCKASGYTFTSYNMHWVRQAPGQRLEWMGAIYPGNGATSYSQKFQGRVTITADTSASTAYMELSSLRSEDTAVYYCARSYYMGGDWYFDVWGAGTLVTVSSASTKGPSVFPLAPSSKSTSGGTAALGCLVKDYFPEPVTVSWNSGALTSGVHTFPAVLQSSGLYSLSSVVTVPSSSLGTQTYICNVNHKPSDTKVDKKVEPKSCDKTHTCPPCPAPPVAGPSVFLFPPKPKDTLMISRTPEVTCVVVDVKHEDPEVKFNWYVDGVEVHNAKTKPREEEYNSTYRVVSVLTVLHQDWLNGKEYKCKVSNKALPAPIEKTISKAKGQPREPQVYTLPPSREEMTKNQVSLTCDVSGFYPSDIAVEWESDGQPENNYKTTPPVLDSDGSFFLYSKLTVDKSRWEQGDVFSCSVMHEALHNHYTQKSLSLSPGK
HC 2 (scFv-Fc): not shown
light: QIVLTQSPSSLSASVGDRVTITCRASWSVSYIHWFQQKPGKSPKPLIYATSNLASGVPVRFSGSGSGTDYTLTISSLQPEDFATYYCQQWTHNPPTFGGGTKVEIKRTVAAPSVFIFPPSDEQLKSGTASVVCLLNNFYPREAKVQWKVDNALQSGNSQESVTEQDSKDSTYSLSSTLTLSKADYEKHKVYACEVTHQGLSSPVTKSFNRGEC
notes: anti-CD3 scFv H1.30_L1.47; also called Anti-CD20 (C2B8_H1.202_L1.113) x Anti-CD3 (H1.30_L1.47) Fab-scFv-Fc
- Kd (human CD3): 4.9 nM
- Kd (cyno CD3): 5.6 nM

B12: XENP14392 (bispecific antibody)
HC 1 (Fab-Fc): QVQLVQSGAEVKKPGASVKVSCKASGYTFTSYNMHWVRQAPGQRLEWMGAIYPGNGATSYSQKFQGRVTITADTSASTAYMELSSLRSEDTAVYYCARSYYMGGDWYFDVWGAGTLVTVSSASTKGPSVFPLAPSSKSTSGGTAALGCLVKDYFPEPVTVSWNSGALTSGVHTFPAVLQSSGLYSLSSVVTVPSSSLGTQTYICNVNHKPSDTKVDKKVEPKSCDKTHTCPPCPAPPVAGPSVFLFPPKPKDTLMISRTPEVTCVVVDVKHEDPEVKFNWYVDGVEVHNAKTKPREEEYNSTYRVVSVLTVLHQDWLNGKEYKCKVSNKALPAPIEKTISKAKGQPREPQVYTLPPSREEMTKNQVSLTCDVSGFYPSDIAVEWESDGQPENNYKTTPPVLDSDGSFFLYSKLTVDKSRWEQGDVFSCSVMHEALHNHYTQKSLSLSPGK
HC 2 (scFv-Fc): not shown
light: QIVLTQSPSSLSASVGDRVTITCRASWSVSYIHWFQQKPGKSPKPLIYATSNLASGVPVRFSGSGSGTDYTLTISSLQPEDFATYYCQQWTHNPPTFGGGTKVEIKRTVAAPSVFIFPPSDEQLKSGTASVVCLLNNFYPREAKVQWKVDNALQSGNSQESVTEQDSKDSTYSLSSTLTLSKADYEKHKVYACEVTHQGLSSPVTKSFNRGEC
notes: anti-CD3 scFv H1.89_L1.47; also called Anti-CD20 (C2B8_H1.202_L1.113) x Anti-CD3 (H1.89_L1.47) Fab-scFv-Fc
- Kd (human CD3): 120 nM
- Kd (cyno CD3): 110 nM

B13: XENP14389 (bispecific antibody)
HC 1 (Fab-Fc): QVQLVQSGAEVKKPGASVKVSCKASGYTFTSYNMHWVRQAPGQRLEWMGAIYPGNGATSYSQKFQGRVTITADTSASTAYMELSSLRSEDTAVYYCARSYYMGGDWYFDVWGAGTLVTVSSASTKGPSVFPLAPSSKSTSGGTAALGCLVKDYFPEPVTVSWNSGALTSGVHTFPAVLQSSGLYSLSSVVTVPSSSLGTQTYICNVNHKPSDTKVDKKVEPKSCDKTHTCPPCPAPPVAGPSVFLFPPKPKDTLMISRTPEVTCVVVDVKHEDPEVKFNWYVDGVEVHNAKTKPREEEYNSTYRVVSVLTVLHQDWLNGKEYKCKVSNKALPAPIEKTISKAKGQPREPQVYTLPPSREEMTKNQVSLTCDVSGFYPSDIAVEWESDGQPENNYKTTPPVLDSDGSFFLYSKLTVDKSRWEQGDVFSCSVMHEALHNHYTQKSLSLSPGK
HC 2 (scFv-Fc): not shown
light: QIVLTQSPSSLSASVGDRVTITCRASWSVSYIHWFQQKPGKSPKPLIYATSNLASGVPVRFSGSGSGTDYTLTISSLQPEDFATYYCQQWTHNPPTFGGGTKVEIKRTVAAPSVFIFPPSDEQLKSGTASVVCLLNNFYPREAKVQWKVDNALQSGNSQESVTEQDSKDSTYSLSSTLTLSKADYEKHKVYACEVTHQGLSSPVTKSFNRGEC
notes: anti-CD3 scFv H1.32_L1.47; also called Anti-CD20 (C2B8_H1.202_L1.113) x Anti-CD3 (H1.32_L1.47) Fab-scFv-Fc
- Kd (human CD3): 44 nM
- Kd (cyno CD3): 45 nM

Reference: patent US20250109215A1 (Xencor, published 2025)
